Data on one substance can be found in PMC4552671.

The target in this assay is Urokinase plasminogen activator surface receptor (uPAR) on metastatic KHOS osteosarcoma cells (human (endogenous in KHOS)) (UniProt Q03405).
UniProt Q03405, sequence (Q03405 other isoform, or with tags, fused parts or gaps): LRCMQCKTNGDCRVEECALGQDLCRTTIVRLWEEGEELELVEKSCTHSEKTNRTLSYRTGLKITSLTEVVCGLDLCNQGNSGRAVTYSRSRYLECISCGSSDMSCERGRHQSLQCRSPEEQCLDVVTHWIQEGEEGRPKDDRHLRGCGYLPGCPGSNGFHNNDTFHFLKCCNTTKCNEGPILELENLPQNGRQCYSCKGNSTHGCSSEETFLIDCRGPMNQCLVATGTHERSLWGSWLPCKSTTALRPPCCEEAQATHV

Substance “recombinant human urokinase plasminogen activator (rh-uPA), high molecular weight form” showed an increase in migration of metastatic KHOS cells over basal level (Transwell, 24 h) with 0.5 and 1.0 ug/mL rh-uPA of 166%.
